# Measurements taken from article doi:10.1101/2024.05.10.593530.
# Molecular target: Vibrio cholerae DdmD (Vibrio cholerae)
# Assay: SEC-MALS
substance,measurement,value
Vibrio cholerae DdmD (enzyme),stoichiometry N,2
